Our source for the abundance fitness values is the Human Domainome abundance scans (Beltran et al. 2025).

The labels stand for the following.
B1: Ankyrin-2, residues 3571 to 3650; numbered along this chain, Q01484 (parent)
chain: ERLAYIADHLGFSWTELARELDFTEEQIHQIRIENPNSLQDQSHALLKYWLERDGKHATDTNLVECLTKINRMDIVHLME

± gives the uncertainty stated by the source.

Variants of B1 are the subject of the series. Put plainly: abundance fitness (aPCA) (normalised: wild type 0, dead -1); higher = more abundant; growth selection in yeast, the domain comes from the species named. The note with it: Homo sapiens.
For the variant ERLAYIADHLGFSWTELARELDFTEEQIHQIRIENPNSLQDQYHALLKYWLERDGKHATDTNLVECLTKINRMDIVHLME, the abundance fitness was -0.508 ± 0.43.
On to ERLAYIADHLGFSWTELARELDFTEEQIHQIRIENPNSLQDQSHALLKYWLERDGKHATDTNLVECLTKINRMDFVHLME, for which the abundance fitness is -0.371 ± 0.34.
Consider ERLAYIADHLGFSWTELARELDFTEEQIHQIRIENPNSLQDQSTALLKYWLERDGKHATDTNLVECLTKINRMDIVHLME, for which the abundance fitness was -0.269 ± 0.47.
For ERLAYIADHLGFSWTELARELDFTEEQIHQIRIENPNSLQDQSHALLKYWLERDGKHATDTNLVECWTKINRMDIVHLME, the abundance fitness is -0.832 ± 0.19.
As to ERLAYIADHLGFSWTELARELDFTEEQIHQIRIENPNSLQDQSHALLKYWLERDGKHAGDTNLVECLTKINRMDIVHLME, the abundance fitness was -0.088 ± 0.05.
With ERLAYIADHLGFSWTELGRELDFTEEQIHQIRIENPNSLQDQSHALLKYWLERDGKHATDTNLVECLTKINRMDIVHLME the figure was -0.128 ± 0.1; with ERLAYIADHLGFSWTELARELDFTEEQIHQIRIENPNSLQDQSHALKKYWLERDGKHATDTNLVECLTKINRMDIVHLME, -0.412 ± 0.17; with ERLAYIADHLGFSWTELAGELDFTEEQIHQIRIENPNSLQDQSHALLKYWLERDGKHATDTNLVECLTKINRMDIVHLME, -0.004 ± 0.057.
ERLAYIADHLGFSWTELARELDFTEEQIHQIRIENPNSLQDQSHALLKYWLERDGKHATDTNLVECLTKINVMDIVHLME: the abundance fitness is -0.568 ± 0.15.
With ERLAYIADHLGFSWTELARELDFTEEQIHQIRIENPNSLQDQSHALLKYWLERKGKHATDTNLVECLTKINRMDIVHLME, the abundance fitness came out at 0.097 ± 0.17.
The value for ERLAYIADHLGFSWTELARELDFTEEQIHQIRIENPNSLQDQSHALLKYWLKRDGKHATDTNLVECLTKINRMDIVHLME was 0.036 ± 0.13.
ERLAYIADHLGFSWTELARELDFTECQIHQIRIENPNSLQDQSHALLKYWLERDGKHATDTNLVECLTKINRMDIVHLME: the abundance fitness was -0.209 ± 0.092.
The value for ERLAYIADHLGFSWTELARELDFTEEQIHQIRIENPNSLQDQSHALLKYWLERDGKHATDTNLVECLTKIDRMDIVHLME was -0.054 ± 0.17; that for ERLAYIADHLGFSWTELARELDFTEEQIHQIRIENPNSLQDQSHALLKYWLERDGKHATDTNLVECLTKIVRMDIVHLME was -0.252 ± 0.057; that for ERLAYIADHLGFSWTELARELDFTEEQIHQIRIENPNSLQDQSHALLKYWLERDGKHATDTNLVECLTWINRMDIVHLME was -0.306 ± 0.05.
For the variant ERLAYIADHLGFSWTELARELDFTEEQIHQIRIENPNSLQDQSHALLVYWLERDGKHATDTNLVECLTKINRMDIVHLME, the abundance fitness is -0.076 ± 0.092.
As to ERLAYIADHLGFSWTELARELDFTEEQIHQIRIENPNSLQDQSHALLFYWLERDGKHATDTNLVECLTKINRMDIVHLME, the abundance fitness is -0.053 ± 0.15.
Consider ERLAYIADHLGFSWTELARELDFTEEQIHQIRIENPNSLQDQSHALLKYWLERDGKHATDTNLTECLTKINRMDIVHLME, for which the abundance fitness is 0.025 ± 0.095.
On to ERLAYIADHLGFSWTELARELDFTEEQIHQIRIENPNSLQDQSHALLKYVLERDGKHATDTNLVECLTKINRMDIVHLME, for which the abundance fitness is -0.017 ± 0.066.
For the variant ERLAYIADHLGFSWTELARELDFTEEQIHQIRIENPNSLQDQSHALLKYHLERDGKHATDTNLVECLTKINRMDIVHLME, the abundance fitness is -0.132 ± 0.13.
With ERLAYIADHLGFSWTELARELDFTEEQIHQIRIENPNSLQTQSHALLKYWLERDGKHATDTNLVECLTKINRMDIVHLME the figure was -0.013 ± 0.075.
As for ERLAYIADHLGFSWTELARELDFTEEQIHQIEIENPNSLQDQSHALLKYWLERDGKHATDTNLVECLTKINRMDIVHLME, the abundance fitness stood at 0.058 ± 0.17.
As for ERLAYIADHLGFSWTELARELDFTEEQIHQIMIENPNSLQDQSHALLKYWLERDGKHATDTNLVECLTKINRMDIVHLME, the abundance fitness was -0.065 ± 0.13.
With ERLAYIADHLGFSWTELARELDFTEEQIHQIRIENPNSLQDQSHALLKYWLERDIKHATDTNLVECLTKINRMDIVHLME the figure was -0.089 ± 0.064.
Regarding ERLAYIADHLTFSWTELARELDFTEEQIHQIRIENPNSLQDQSHALLKYWLERDGKHATDTNLVECLTKINRMDIVHLME, the abundance fitness is -0.141 ± 0.072.
The value for ERLAYIADHDGFSWTELARELDFTEEQIHQIRIENPNSLQDQSHALLKYWLERDGKHATDTNLVECLTKINRMDIVHLME was -0.509 ± 0.2.
ERLAYIADHLGFSWTTLARELDFTEEQIHQIRIENPNSLQDQSHALLKYWLERDGKHATDTNLVECLTKINRMDIVHLME: the abundance fitness came out at 0.038 ± 0.12.
Turning to ERLAYIADHLGFSWTELARELDPTEEQIHQIRIENPNSLQDQSHALLKYWLERDGKHATDTNLVECLTKINRMDIVHLME, the abundance fitness is -1.07 ± 0.22.
As for ERLAYIADHLGFSWTELARELDFTEEQIHQIRIENPNSLQDQSHALLKYWLERDGKHATDTNLVCCLTKINRMDIVHLME, the abundance fitness was -0.147 ± 0.11.
As to ERLAYIADHLGFCWTELARELDFTEEQIHQIRIENPNSLQDQSHALLKYWLERDGKHATDTNLVECLTKINRMDIVHLME, the abundance fitness was -0.25 ± 0.19.
The value for ERLAYIADHLGFSWTELARELDFTEENIHQIRIENPNSLQDQSHALLKYWLERDGKHATDTNLVECLTKINRMDIVHLME was 0.08 ± 0.41.
With ERLAYIADHLGFSWTELARELDFTEEQIHNIRIENPNSLQDQSHALLKYWLERDGKHATDTNLVECLTKINRMDIVHLME the figure was -0.128 ± 0.18.
Consider ERLAYIADHLGFSWTELARELDFNEEQIHQIRIENPNSLQDQSHALLKYWLERDGKHATDTNLVECLTKINRMDIVHLME, for which the abundance fitness is -0.005 ± 0.088.
On to ERLAYIADHLGFSWTELARELDFVEEQIHQIRIENPNSLQDQSHALLKYWLERDGKHATDTNLVECLTKINRMDIVHLME, for which the abundance fitness is -0.248 ± 0.079.
In the case of ERLAYIADHLGFSWTELARELDFTEEQIHQHRIENPNSLQDQSHALLKYWLERDGKHATDTNLVECLTKINRMDIVHLME, the abundance fitness is -0.707 ± 0.5.
